Measured values reported in patent US20260049138A1 (Chugai, published 2026).

T1: human CD154 (human, UniProt P29965 113-261, limits assumed, biotin-labeled)
T1 construct: also called biotin-labeled human CD154; biotinylated human CD154
T1 sequence (looked up): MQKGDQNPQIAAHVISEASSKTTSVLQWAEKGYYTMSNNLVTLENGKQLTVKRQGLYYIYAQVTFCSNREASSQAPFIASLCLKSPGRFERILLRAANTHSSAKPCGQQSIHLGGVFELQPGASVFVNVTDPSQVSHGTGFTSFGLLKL


molecular target: T1, human CD154; experiment: ECL competition, CD3ε[+]: CD3ε homodimer added as competitor [1]
Description: Next, each obtained IgG was evaluated for its binding to CD3 and human CD154 at the same time by the competition method (electrochemiluminescence method (ECL method)).
A TBST solution containing 0.5% BSA (referred to as a blocking solution; the TBST solution was TBS (manufactured by Takara Bio Inc.) supplemented with 0.1% Tween 20) was added at 150 μL/well to streptavidin plate (MSD K.K.), and the plate was incubated at room temperature for 1 hour or longer. After removal of the blocking solution, each well was washed three times with 250 μL of a TBST solution. The antibody-antigen complex solution was added thereto at 50 μL/well, and the plate was incubated at room temperature for 1 hour so that the biotinylated antigen-antibody-detection sulfo-tag antibody complex solution bound via the biotinylated antigen to the streptavidin plate. After removal of the antibody-antigen complex solution, each well was washed three times with a TBST solution, and a solution of 4×READ buffer (MSD K.K.) diluted 2-fold with water was added thereto at 150 μL/well, followed by the detection of the luminescence signal of the sulfo-tag using Sector Imager 2400 (MSD K.K.).

| relative ECL reaction (to no antigen coating) | Binder |
| --- | --- |
| 19 | 154R3A01#3 one-arm antibody (antibody, human IgG1, kappa, L234A L235A, N297A, As m48) heavy: QVQLVESGGGLVQPGRSLRLSCAASGFAFSNAWMHWVRQAPGKGLEWVAQIKDRVNQYANYYAESVKGRFTISRDDSKNSIYLQMNSLKTEDTAVYYCRYVHYGLTGYFSGQGGVDAWGQGTTVTVSSASTKGPSVFPLAPSSKSTSGGTAALGCLVKDYFPEPVTVSWNSGALTSGVHTFPAVLQSSGLYSLSSVVTVPSSSLGTQTYICNVNHKPSNTKVDKKVEPKSCDKTHTCPPCPAPEAAGGPSVFLFPPKPKDTLMISRTPEVTCVVVDVSHEDPEVKFNWYVDGVEVHNAKTKPREEQYASTYRVVSVLTVLHQDWLNGKEYKCKVSNKALPAPIEKTISKAKGQPREPQVYTLPPSRCELTKNQVSLSCAVKGFYPSDIAVEWESNGQPENNYKTTPPVLDSDGSFFLVSKLTVDKSRWQQGNVFSCSVMHEALHNHYTQKSLSLSPDYKDDDDK EPKSSDKTHTCPPCPAPELLGGPSVFLFPPKPKDTLMISRTPEVTCVVVDVSHEDPEVKFNWYVDGVEVHNAKTKPREEQYNSTYRVVSVLTVLHQDWLNGKEYKCKVSNKALPAPIEKTISKAKGQPREPQVCTLPPSRDELTKNQVSLWCLVKGFYPSDIAVEWESNGQPENNYKTTPPVLDSDGSFFLYSKLTVDKSRWQQGNVFSCSVMHEALHNRYTQKSLSLSP light: DIVMTQSPLSLPVTPGEPASISCRSSQSLVHSNRNTYLHWYQQKPGQAPRLLIYKVSNRFSGVPDRFSGSGSGTDFTLKISRVEAEDVGVYYCGQGTQVPYTFGQGTKLEIKRTVAAPSVFIFPPSDEQLKSGTASVVCLLNNFYPREAKVQWKVDNALQSGNSQESVTEQDSKDSTYSLSSTLTLSKADYEKHKVYACEVTHQGLSSPVTKSFNRGEC |
| 1 | 154R4F08#1 one-arm antibody (antibody, human IgG1, kappa, L234A L235A, N297A, As m48) heavy: QVQLVESGGGLVQPGHSLRLSCAASGFTFSNAWMHWVRQAPGKGLEWVAQIKDRGNNYAAYYAESVKGRFTISRDDSKNSIYLQMNSLKTEDTAVYYCRYVHYGSYFFASFYFGVDIWGQGTTVTVSSASTKGPSVFPLAPSSKSTSGGTAALGCLVKDYFPEPVTVSWNSGALTSGVHTFPAVLQSSGLYSLSSVVTVPSSSLGTQTYICNVNHKPSNTKVDKKVEPKSCDKTHTCPPCPAPEAAGGPSVFLFPPKPKDTLMISRTPEVTCVVVDVSHEDPEVKFNWYVDGVEVHNAKTKPREEQYASTYRVVSVLTVLHQDWLNGKEYKCKVSNKALPAPIEKTISKAKGQPREPQVYTLPPSRCELTKNQVSLSCAVKGFYPSDIAVEWESNGQPENNYKTTPPVLDSDGSFFLVSKLTVDKSRWQQGNVFSCSVMHEALHNHYTQKSLSLSPDYKDDDDK EPKSSDKTHTCPPCPAPELLGGPSVFLFPPKPKDTLMISRTPEVTCVVVDVSHEDPEVKFNWYVDGVEVHNAKTKPREEQYNSTYRVVSVLTVLHQDWLNGKEYKCKVSNKALPAPIEKTISKAKGQPREPQVCTLPPSRDELTKNQVSLWCLVKGFYPSDIAVEWESNGQPENNYKTTPPVLDSDGSFFLYSKLTVDKSRWQQGNVFSCSVMHEALHNRYTQKSLSLSP light: DIVMTQSPLSLPVTPGEPASISCRSSQSLVHSNRNTYLHWYQQKPGQAPRLLIYKVSNRFSGVPDRFSGSGSGTDFTLKISRVEAEDVGVYYCGQGTQVPYTFGQGTKLEIKRTVAAPSVFIFPPSDEQLKSGTASVVCLLNNFYPREAKVQWKVDNALQSGNSQESVTEQDSKDSTYSLSSTLTLSKADYEKHKVYACEVTHQGLSSPVTKSFNRGEC |

The remaining lines, values behind:

| Binder | relative ECL reaction (to no antigen coating) |
| --- | --- |
| 154R4B07#1 one-arm antibody (antibody, human IgG1, kappa, L234A L235A, N297A, As m48) heavy: QVQLVESGGGLVQPGRSLRLSCAASGFTFSNAWMHWVRQAPGKGLEWVAQIKDRGNNYAAYYAESVKGRFTISRDDSKNSIYLQMNSLKTEDTAVYYCRYVHYGSYFFASFYFGVDIWGQGTTVTVSSASTKGPSVFPLAPSSKSTSGGTAALGCLVKDYFPEPVTVSWNSGALTSGVHTFPAVLQSSGLYSLSSVVTVPSSSLGTQTYICNVNHKPSNTKVDKKVEPKSCDKTHTCPPCPAPEAAGGPSVFLFPPKPKDTLMISRTPEVTCVVVDVSHEDPEVKFNWYVDGVEVHNAKTKPREEQYASTYRVVSVLTVLHQDWLNGKEYKCKVSNKALPAPIEKTISKAKGQPREPQVYTLPPSRCELTKNQVSLSCAVKGFYPSDIAVEWESNGQPENNYKTTPPVLDSDGSFFLVSKLTVDKSRWQQGNVFSCSVMHEALHNHYTQKSLSLSPDYKDDDDK EPKSSDKTHTCPPCPAPELLGGPSVFLFPPKPKDTLMISRTPEVTCVVVDVSHEDPEVKFNWYVDGVEVHNAKTKPREEQYNSTYRVVSVLTVLHQDWLNGKEYKCKVSNKALPAPIEKTISKAKGQPREPQVCTLPPSRDELTKNQVSLWCLVKGFYPSDIAVEWESNGQPENNYKTTPPVLDSDGSFFLYSKLTVDKSRWQQGNVFSCSVMHEALHNRYTQKSLSLSP light: DIVMTQSPLSLPVTPGEPASISCRSSQSLVHSNRNTYLHWYQQKPGQAPRLLIYKVSNRFSGVPDRFSGSGSGTDFTLKISRVEAEDVGVYYCGQGTQVPYTFGQGTKLEIKRTVAAPSVFIFPPSDEQLKSGTASVVCLLNNFYPREAKVQWKVDNALQSGNSQESVTEQDSKDSTYSLSSTLTLSKADYEKHKVYACEVTHQGLSSPVTKSFNRGEC | 1 |
| 154R3A01#2 one-arm antibody (antibody, human IgG1, kappa, L234A L235A, N297A, As m48) heavy: QVQLVESGGGLVQPGRSLRLSCAASGFTFSNAWMHWVRQAPGKGLEWVAQIKDRVNQYANYYAESVKGRLTISRDDSKNSIYLQMNSLKTEDTAVYYCRYVHYGLTGYFSGQGGVDAWGQGTTVTVSSASTKGPSVFPLAPSSKSTSGGTAALGCLVKDYFPEPVTVSWNSGALTSGVHTFPAVLQSSGLYSLSSVVTVPSSSLGTQTYICNVNHKPSNTKVDKKVEPKSCDKTHTCPPCPAPEAAGGPSVFLFPPKPKDTLMISRTPEVTCVVVDVSHEDPEVKFNWYVDGVEVHNAKTKPREEQYASTYRVVSVLTVLHQDWLNGKEYKCKVSNKALPAPIEKTISKAKGQPREPQVYTLPPSRCELTKNQVSLSCAVKGFYPSDIAVEWESNGQPENNYKTTPPVLDSDGSFFLVSKLTVDKSRWQQGNVFSCSVMHEALHNHYTQKSLSLSPDYKDDDDK EPKSSDKTHTCPPCPAPELLGGPSVFLFPPKPKDTLMISRTPEVTCVVVDVSHEDPEVKFNWYVDGVEVHNAKTKPREEQYNSTYRVVSVLTVLHQDWLNGKEYKCKVSNKALPAPIEKTISKAKGQPREPQVCTLPPSRDELTKNQVSLWCLVKGFYPSDIAVEWESNGQPENNYKTTPPVLDSDGSFFLYSKLTVDKSRWQQGNVFSCSVMHEALHNRYTQKSLSLSP light: DIVMTQSPLSLPVTPGEPASISCRSSQSLVHSNRNTYLHWYQQKPGQAPRLLIYKVSNRFSGVPDRFSGSGSGTDFTLKISRVEAEDVGVYYCGQGTQVPYTFGQGTKLEIKRTVAAPSVFIFPPSDEQLKSGTASVVCLLNNFYPREAKVQWKVDNALQSGNSQESVTEQDSKDSTYSLSSTLTLSKADYEKHKVYACEVTHQGLSSPVTKSFNRGEC | 4 |
| 154R3A01#1 one-arm antibody (antibody, human IgG1, kappa, L234A L235A, N297A) heavy: QVQLVESGGGLVQPGRSLRLSCAASGFTFSNAWMHWVRQAPGKGLEWVAQIKDRVNQYANYYAESVKGRFTISRDDSKNSIYLQMNSLKTEDTAVYYCRYVHYGLTGYFSGQGGVDAWGQGTTVTVSSASTKGPSVFPLAPSSKSTSGGTAALGCLVKDYFPEPVTVSWNSGALTSGVHTFPAVLQSSGLYSLSSVVTVPSSSLGTQTYICNVNHKPSNTKVDKKVEPKSCDKTHTCPPCPAPEAAGGPSVFLFPPKPKDTLMISRTPEVTCVVVDVSHEDPEVKFNWYVDGVEVHNAKTKPREEQYASTYRVVSVLTVLHQDWLNGKEYKCKVSNKALPAPIEKTISKAKGQPREPQVYTLPPSRCELTKNQVSLSCAVKGFYPSDIAVEWESNGQPENNYKTTPPVLDSDGSFFLVSKLTVDKSRWQQGNVFSCSVMHEALHNHYTQKSLSLSPDYKDDDDK EPKSSDKTHTCPPCPAPELLGGPSVFLFPPKPKDTLMISRTPEVTCVVVDVSHEDPEVKFNWYVDGVEVHNAKTKPREEQYNSTYRVVSVLTVLHQDWLNGKEYKCKVSNKALPAPIEKTISKAKGQPREPQVCTLPPSRDELTKNQVSLWCLVKGFYPSDIAVEWESNGQPENNYKTTPPVLDSDGSFFLYSKLTVDKSRWQQGNVFSCSVMHEALHNRYTQKSLSLSP light: DIVMTQSPLSLPVTPGEPASISCRSSQSLVHSNRNTYLHWYQQKPGQAPRLLIYKVSNRFSGVPDRFSGSGSGTDFTLKISRVEAEDVGVYYCGQGTQVPYTFGQGTKLEIKRTVAAPSVFIFPPSDEQLKSGTASVVCLLNNFYPREAKVQWKVDNALQSGNSQESVTEQDSKDSTYSLSSTLTLSKADYEKHKVYACEVTHQGLSSPVTKSFNRGEC | 21 |

molecular target: T2, CD3ε homodimer protein (human, UniProt P07766 23-126, limits assumed, sulfo-tag or biotin label in the ECL assays; amine-coupled to the chip in SPR); experiment: SPR Biacore T200; CD3ε homodimer on CM4 chip;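 note: Single-residue variant antibodies injected as analyte over CD3ε homodimer immobilized by amine coupling, run at 25 °C in HBS-EP+ buffer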
T2 construct: also called human CD3ε homodimer protein; CD3 (CD3ε)
T2 sequence (P07766 23-126 limits assumed): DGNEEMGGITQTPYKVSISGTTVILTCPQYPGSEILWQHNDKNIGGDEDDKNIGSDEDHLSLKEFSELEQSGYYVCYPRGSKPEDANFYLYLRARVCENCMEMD

| ratio of amounts bound Z=Y/X (altered form / CE115HA000) | Binder |
| --- | --- |
| 0.64 | CE115HA000 Y100aS one-arm antibody (antibody, human IgG1, kappa, L234A L235A, N297A, name in Kabat numbering) heavy: QVQLVESGGGVVQPGRSLRLSCAASGFTFSNAWMHWVRQAPGKGLEWVAQIKAKSNNYATYYAESVKGRFTISRDDSKNSLYLQMNSLKTEDTAVYYCRYVHYGAYSGVDAWGQGTTVTVSSASTKGPSVFPLAPSSKSTSGGTAALGCLVKDYFPEPVTVSWNSGALTSGVHTFPAVLQSSGLYSLSSVVTVPSSSLGTQTYICNVNHKPSNTKVDKKVEPKSCDKTHTCPPCPAPEAAGGPSVFLFPPKPKDTLMISRTPEVTCVVVDVSHEDPEVKFNWYVDGVEVHNAKTKPREEQYASTYRVVSVLTVLHQDWLNGKEYKCKVSNKALPAPIEKTISKAKGQPREPQVYTLPPSRCELTKNQVSLSCAVKGFYPSDIAVEWESNGQPENNYKTTPPVLDSDGSFFLVSKLTVDKSRWQQGNVFSCSVMHEALHNHYTQKSLSLSPDYKDDDDK EPKSSDKTHTCPPCPAPELLGGPSVFLFPPKPKDTLMISRTPEVTCVVVDVSHEDPEVKFNWYVDGVEVHNAKTKPREEQYNSTYRVVSVLTVLHQDWLNGKEYKCKVSNKALPAPIEKTISKAKGQPREPQVCTLPPSRDELTKNQVSLWCLVKGFYPSDIAVEWESNGQPENNYKTTPPVLDSDGSFFLYSKLTVDKSRWQQGNVFSCSVMHEALHNRYTQKSLSLSP light: DIVMTQSPLSLPVTPGEPASISCRSSQSLVHSNRNTYLHWYQQKPGQAPRLLIYKVSNRFSGVPDRFSGSGSGTDFTLKISRVEAEDVGVYYCGQGTQVPYTFGQGTKLEIKRTVAAPSVFIFPPSDEQLKSGTASVVCLLNNFYPREAKVQWKVDNALQSGNSQESVTEQDSKDSTYSLSSTLTLSKADYEKHKVYACEVTHQGLSSPVTKSFNRGEC |
